Numbered stars: 1 amine (or outer) side, 2 acyl side, 3 side chain; on linkers, the order of the positions; unused ones are H or OH. Bridge positions count the residues as written; N and C are the ends. Side chains are listed from the residue outwards. Ends that are not written are not given here. * marks the point of attachment. C20 diacid = O=C(O)CCCCCCCCCCCCCCCCCCC(=O)*; γGlu = O=C(O)[C@H](CCC(=O)[*:2])N[*:1]
B1: N^ε1-[(4S)-4-carboxy-4-(19-carboxynonadecanoylamino)butanoyl]-[Glu14,Arg17,Pro21,Pro27,Pro34,Arg35]-h-amylin (peptide)
peptide: K([γGlu-C20 diacid])CNTATCATQRLAEFLRHSSPNFGAIPSSTNVGPRTY-NH2
modifications: disulfide 2-7; N-terminus assumed
SMILES: CC[C@H](C)[C@H](NC(=O)[C@H](C)NC(=O)CNC(=O)[C@H](Cc1ccccc1)NC(=O)[C@H](CC(N)=O)NC(=O)[C@@H]1CCCN1C(=O)[C@H](CO)NC(=O)[C@H](CO)NC(=O)[C@H](Cc1c[nH]cn1)NC(=O)[C@H](CCCNC(=N)N)NC(=O)[C@H](CC(C)C)NC(=O)[C@H](Cc1ccccc1)NC(=O)[C@H](CCC(=O)O)NC(=O)[C@H](C)NC(=O)[C@H](CC(C)C)NC(=O)[C@H](CCCNC(=N)N)NC(=O)[C@H](CCC(N)=O)NC(=O)[C@@H](NC(=O)[C@H](C)NC(=O)[C@@H]1CSSC[C@H](NC(=O)[C@@H](N)CCCCNC(=O)CC[C@H](NC(=O)CCCCCCCCCCCCCCCCCCC(=O)O)C(=O)O)C(=O)N[C@@H](CC(N)=O)C(=O)N[C@@H]([C@@H](C)O)C(=O)N[C@@H](C)C(=O)N[C@@H]([C@@H](C)O)C(=O)N1)[C@@H](C)O)C(=O)N1CCC[C@H]1C(=O)N[C@@H](CO)C(=O)N[C@@H](CO)C(=O)N[C@H](C(=O)N[C@@H](CC(N)=O)C(=O)N[C@H](C(=O)NCC(=O)N1CCC[C@H]1C(=O)N[C@@H](CCCNC(=N)N)C(=O)N[C@H](C(=O)N[C@@H](Cc1ccc(O)cc1)C(N)=O)[C@@H](C)O)C(C)C)[C@@H](C)O
B2: N^ε1-[(4S)-4-carboxy-4-(19-carboxynonadecanoylamino)butanoyl]-[Asp14,Arg17,Pro21,Pro27,Pro34,Arg35]-h-amylin (peptide)
peptide: K([γGlu-C20 diacid])CNTATCATQRLADFLRHSSPNFGAIPSSTNVGPRTY-NH2
modifications: disulfide 2-7; N-terminus assumed
SMILES: CC[C@H](C)[C@H](NC(=O)[C@H](C)NC(=O)CNC(=O)[C@H](Cc1ccccc1)NC(=O)[C@H](CC(N)=O)NC(=O)[C@@H]1CCCN1C(=O)[C@H](CO)NC(=O)[C@H](CO)NC(=O)[C@H](Cc1c[nH]cn1)NC(=O)[C@H](CCCNC(=N)N)NC(=O)[C@H](CC(C)C)NC(=O)[C@H](Cc1ccccc1)NC(=O)[C@H](CC(=O)O)NC(=O)[C@H](C)NC(=O)[C@H](CC(C)C)NC(=O)[C@H](CCCNC(=N)N)NC(=O)[C@H](CCC(N)=O)NC(=O)[C@@H](NC(=O)[C@H](C)NC(=O)[C@@H]1CSSC[C@H](NC(=O)[C@@H](N)CCCCNC(=O)CC[C@H](NC(=O)CCCCCCCCCCCCCCCCCCC(=O)O)C(=O)O)C(=O)N[C@@H](CC(N)=O)C(=O)N[C@@H]([C@@H](C)O)C(=O)N[C@@H](C)C(=O)N[C@@H]([C@@H](C)O)C(=O)N1)[C@@H](C)O)C(=O)N1CCC[C@H]1C(=O)N[C@@H](CO)C(=O)N[C@@H](CO)C(=O)N[C@H](C(=O)N[C@@H](CC(N)=O)C(=O)N[C@H](C(=O)NCC(=O)N1CCC[C@H]1C(=O)N[C@@H](CCCNC(=N)N)C(=O)N[C@H](C(=O)N[C@@H](Cc1ccc(O)cc1)C(N)=O)[C@@H](C)O)C(C)C)[C@@H](C)O
B3: N^ε1-[(4S)-4-carboxy-4-(19-carboxynonadecanoylamino)butanoyl]-[Asp14,Arg17,Pro21,Pro27,Pro34,Glu35]-h-amylin (peptide)
peptide: K([γGlu-C20 diacid])CNTATCATQRLADFLRHSSPNFGAIPSSTNVGPETY-NH2
modifications: disulfide 2-7; N-terminus assumed
SMILES: CC[C@H](C)[C@H](NC(=O)[C@H](C)NC(=O)CNC(=O)[C@H](Cc1ccccc1)NC(=O)[C@H](CC(N)=O)NC(=O)[C@@H]1CCCN1C(=O)[C@H](CO)NC(=O)[C@H](CO)NC(=O)[C@H](Cc1c[nH]cn1)NC(=O)[C@H](CCCNC(=N)N)NC(=O)[C@H](CC(C)C)NC(=O)[C@H](Cc1ccccc1)NC(=O)[C@H](CC(=O)O)NC(=O)[C@H](C)NC(=O)[C@H](CC(C)C)NC(=O)[C@H](CCCNC(=N)N)NC(=O)[C@H](CCC(N)=O)NC(=O)[C@@H](NC(=O)[C@H](C)NC(=O)[C@@H]1CSSC[C@H](NC(=O)[C@@H](N)CCCCNC(=O)CC[C@H](NC(=O)CCCCCCCCCCCCCCCCCCC(=O)O)C(=O)O)C(=O)N[C@@H](CC(N)=O)C(=O)N[C@@H]([C@@H](C)O)C(=O)N[C@@H](C)C(=O)N[C@@H]([C@@H](C)O)C(=O)N1)[C@@H](C)O)C(=O)N1CCC[C@H]1C(=O)N[C@@H](CO)C(=O)N[C@@H](CO)C(=O)N[C@H](C(=O)N[C@@H](CC(N)=O)C(=O)N[C@H](C(=O)NCC(=O)N1CCC[C@H]1C(=O)N[C@@H](CCC(=O)O)C(=O)N[C@H](C(=O)N[C@@H](Cc1ccc(O)cc1)C(N)=O)[C@@H](C)O)C(C)C)[C@@H](C)O
B4: N^ε1-[(4S)-4-carboxy-4-(19-carboxynonadecanoylamino)butanoyl]-[Glu14,Arg17,Pro21,Pro27,His35]-h-amylin (peptide)
peptide: K([γGlu-C20 diacid])CNTATCATQRLAEFLRHSSPNFGAIPSSTNVGSHTY-NH2
modifications: disulfide 2-7; N-terminus assumed
SMILES: CC[C@H](C)[C@H](NC(=O)[C@H](C)NC(=O)CNC(=O)[C@H](Cc1ccccc1)NC(=O)[C@H](CC(N)=O)NC(=O)[C@@H]1CCCN1C(=O)[C@H](CO)NC(=O)[C@H](CO)NC(=O)[C@H](Cc1c[nH]cn1)NC(=O)[C@H](CCCNC(=N)N)NC(=O)[C@H](CC(C)C)NC(=O)[C@H](Cc1ccccc1)NC(=O)[C@H](CCC(=O)O)NC(=O)[C@H](C)NC(=O)[C@H](CC(C)C)NC(=O)[C@H](CCCNC(=N)N)NC(=O)[C@H](CCC(N)=O)NC(=O)[C@@H](NC(=O)[C@H](C)NC(=O)[C@@H]1CSSC[C@H](NC(=O)[C@@H](N)CCCCNC(=O)CC[C@H](NC(=O)CCCCCCCCCCCCCCCCCCC(=O)O)C(=O)O)C(=O)N[C@@H](CC(N)=O)C(=O)N[C@@H]([C@@H](C)O)C(=O)N[C@@H](C)C(=O)N[C@@H]([C@@H](C)O)C(=O)N1)[C@@H](C)O)C(=O)N1CCC[C@H]1C(=O)N[C@@H](CO)C(=O)N[C@@H](CO)C(=O)N[C@H](C(=O)N[C@@H](CC(N)=O)C(=O)N[C@H](C(=O)NCC(=O)N[C@@H](CO)C(=O)N[C@@H](Cc1c[nH]cn1)C(=O)N[C@H](C(=O)N[C@@H](Cc1ccc(O)cc1)C(N)=O)[C@@H](C)O)C(C)C)[C@@H](C)O
B5: N^ε1-[(4S)-4-carboxy-4-(19-carboxynonadecanoylamino)butanoyl]-[His14,Arg17,Pro21,Pro27,Pro31,Pro34]-h-amylin (peptide)
peptide: K([γGlu-C20 diacid])CNTATCATQRLAHFLRHSSPNFGAIPSSTPVGPNTY-NH2
modifications: disulfide 2-7; N-terminus assumed
SMILES: CC[C@H](C)[C@H](NC(=O)[C@H](C)NC(=O)CNC(=O)[C@H](Cc1ccccc1)NC(=O)[C@H](CC(N)=O)NC(=O)[C@@H]1CCCN1C(=O)[C@H](CO)NC(=O)[C@H](CO)NC(=O)[C@H](Cc1c[nH]cn1)NC(=O)[C@H](CCCNC(=N)N)NC(=O)[C@H](CC(C)C)NC(=O)[C@H](Cc1ccccc1)NC(=O)[C@H](Cc1c[nH]cn1)NC(=O)[C@H](C)NC(=O)[C@H](CC(C)C)NC(=O)[C@H](CCCNC(=N)N)NC(=O)[C@H](CCC(N)=O)NC(=O)[C@@H](NC(=O)[C@H](C)NC(=O)[C@@H]1CSSC[C@H](NC(=O)[C@@H](N)CCCCNC(=O)CC[C@H](NC(=O)CCCCCCCCCCCCCCCCCCC(=O)O)C(=O)O)C(=O)N[C@@H](CC(N)=O)C(=O)N[C@@H]([C@@H](C)O)C(=O)N[C@@H](C)C(=O)N[C@@H]([C@@H](C)O)C(=O)N1)[C@@H](C)O)C(=O)N1CCC[C@H]1C(=O)N[C@@H](CO)C(=O)N[C@@H](CO)C(=O)N[C@H](C(=O)N1CCC[C@H]1C(=O)N[C@H](C(=O)NCC(=O)N1CCC[C@H]1C(=O)N[C@@H](CC(N)=O)C(=O)N[C@H](C(=O)N[C@@H](Cc1ccc(O)cc1)C(N)=O)[C@@H](C)O)C(C)C)[C@@H](C)O
B6: N^ε1-[(4S)-4-carboxy-4-[[(4S)-4-carboxy-4-(19-carboxynonadecanoylamino)butanoyl]amino]butanoyl]-[Arg17,Pro21,Pro27,Pro31,Pro34,Arg35]-h-amylin (peptide)
peptide: K([γGlu-γGlu-C20 diacid])CNTATCATQRLANFLRHSSPNFGAIPSSTPVGPRTY-NH2
modifications: disulfide 2-7; N-terminus assumed
SMILES: CC[C@H](C)[C@H](NC(=O)[C@H](C)NC(=O)CNC(=O)[C@H](Cc1ccccc1)NC(=O)[C@H](CC(N)=O)NC(=O)[C@@H]1CCCN1C(=O)[C@H](CO)NC(=O)[C@H](CO)NC(=O)[C@H](Cc1c[nH]cn1)NC(=O)[C@H](CCCNC(=N)N)NC(=O)[C@H](CC(C)C)NC(=O)[C@H](Cc1ccccc1)NC(=O)[C@H](CC(N)=O)NC(=O)[C@H](C)NC(=O)[C@H](CC(C)C)NC(=O)[C@H](CCCNC(=N)N)NC(=O)[C@H](CCC(N)=O)NC(=O)[C@@H](NC(=O)[C@H](C)NC(=O)[C@@H]1CSSC[C@H](NC(=O)[C@@H](N)CCCCNC(=O)CC[C@H](NC(=O)CC[C@H](NC(=O)CCCCCCCCCCCCCCCCCCC(=O)O)C(=O)O)C(=O)O)C(=O)N[C@@H](CC(N)=O)C(=O)N[C@@H]([C@@H](C)O)C(=O)N[C@@H](C)C(=O)N[C@@H]([C@@H](C)O)C(=O)N1)[C@@H](C)O)C(=O)N1CCC[C@H]1C(=O)N[C@@H](CO)C(=O)N[C@@H](CO)C(=O)N[C@H](C(=O)N1CCC[C@H]1C(=O)N[C@H](C(=O)NCC(=O)N1CCC[C@H]1C(=O)N[C@@H](CCCNC(=N)N)C(=O)N[C@H](C(=O)N[C@@H](Cc1ccc(O)cc1)C(N)=O)[C@@H](C)O)C(C)C)[C@@H](C)O

Target: T1, human calcitonin receptor (human, UniProt P30988 25-474)
T1 construct: whole, on cells; also called hCTR; hCT
T1 sequence (looked up): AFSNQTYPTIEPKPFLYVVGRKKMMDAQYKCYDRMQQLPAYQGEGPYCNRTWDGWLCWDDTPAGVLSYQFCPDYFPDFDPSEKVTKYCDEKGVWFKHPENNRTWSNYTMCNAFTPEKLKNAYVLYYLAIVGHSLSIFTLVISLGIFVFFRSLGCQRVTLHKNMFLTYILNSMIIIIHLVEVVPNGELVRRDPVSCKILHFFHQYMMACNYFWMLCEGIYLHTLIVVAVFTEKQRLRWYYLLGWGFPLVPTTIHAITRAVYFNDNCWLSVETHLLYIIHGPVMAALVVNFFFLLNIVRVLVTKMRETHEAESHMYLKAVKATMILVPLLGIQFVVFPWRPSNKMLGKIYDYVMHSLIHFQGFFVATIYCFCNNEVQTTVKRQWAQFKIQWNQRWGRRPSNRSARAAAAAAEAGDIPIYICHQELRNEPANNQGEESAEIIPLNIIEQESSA
Assay: ratio of IC50 at human calcitonin receptor to IC50 at human amylin receptor (SPA competition assays)
In short: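 Competition binding by SPA uses membrane preparations (35 ng/μL final) in pH 7.4 Hepes buffer with 1 mM CaCl2 and 5 mM MgCl₂. Incubation lasts 120 min at 25° C, and IC₅₀ comes from one-site fitting.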

Q: Which “Ratio hCT/hAmylin binding” value does the source give for B1 here?
A: 38.6

Q: Which “Ratio hCT/hAmylin binding” value does the source give for B2 here?
A: 151

Q: With B3 as the binder, how does the “Ratio hCT/hAmylin binding” value read?
A: 16.7

Q: B4 was tested. Which “Ratio hCT/hAmylin binding” value did it give?
A: 26.4

Q: How did the “Ratio hCT/hAmylin binding” value turn out when K([γGlu-C20 diacid])CNTATCATQRLAEFLRHSSPNFGAIPSSTNVGPHTY-NH2 (disulfide 2-7) was run?
A: 21.2

Q: Which “Ratio hCT/hAmylin binding” value does the source give for B5 here?
A: 24.8

Q: How did the “Ratio hCT/hAmylin binding” value turn out when B6 was run?
A: 48.6

Target: T1, human calcitonin receptor
Assay: SPA competition against 125I-calcitonin, membranes of BHK cells with human calcitonin receptor (Assay VII)
In short: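 BHK hCTR membranes 35 ng/μL + SPA beads 0.05 mg/well; buffer 50 mM Hepes pH 7.4, 1 mM CaCl2, 5 mM MgCl₂, 0.1% OA, 0.02% Tween20. 120 min, 25° C., shaking. Scintillation count; IC50 by one-site binding competition.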

Q: Which IC50 does the source give for B1 here?
A: 6.3 nM

Q: B2 was tested. Which IC50 did it give?
A: 42.5 nM

Q: B3 was tested. Which IC50 did it give?
A: 3.27 nM

Q: For B4, which IC50 is on record?
A: 26.1 nM

Q: For K([γGlu-C20 diacid])CNTATCATQRLAEFLRHSSPNFGAIPSSTNVGPHTY-NH2 (disulfide 2-7), which IC50 is on record?
A: 3.8 nM

Q: With B5 as the binder, how does the IC50 read?
A: 2.04 nM

Q: With B6 as the binder, how does the IC50 read?
A: 42.8 nM
